Patent US11421006B2, “T cell epitopes from Cockroach and methods of making and using same” (LA JOLLA INSTITUTE FOR ALLERGY AND IMMUNOLOGY, priority 2012, dated 2022)
“Also recorded” adds a separate entry of the source.

B1: Bla g 5: German Cockroach allergen Bla g 5 (protein, listed as Blattella germanica)
chain: MAPSYKLTYCPVKALGEPIRFLLSYGEKDFEDYRFQEGDWPNLKPSMPFGKTPVLEIDGKQTHQSVAISRYLGKQFGLSGKDDWENLEIDMIVDTISDFRAAIANYHYDADENSKQKKWDPLKKETIPYYTKKFDEVVKANGGYLAAGKLTWADFYFVAILDYLNHMAKEDLVANQPNLKALREKVLGLPAIKAWVAKRPPTDL
B2: Bla g 2: German Cockroach allergen Bla g 2 (protein, listed as Blattella germanica)
chain: MIGLKLVTVLFAVATITHAAELQRVPLYKLVHVFINTQYAGITKIGNQNFLTVFDSTSCNVVVASQECVGGACVCPNLQKYEKLKPKYISDGNVQVKFFDTGSAVGRGIEDSLTISNLTTSQQDIVLADELSQEVCILSADVVVGIAAPGCPNALKGKTVLENFVEENLIAPVFSIHHARFQDGEHFGEIIFGGSDWKYVDGEFTYVPLVGDDSWKFRLDGVKIGDTTVAPAGTQAIIDTSKAIIVGPKAYVNPINEAIGCVVEKTTTRRICKLDCSKIPSLPDVTFVINGRNFNISSQYYIQQNGNLCYSGFQPCGHSDHFFIGDFFVDHYYSEFNWENKTMGFGRSVESV
B3: Bla g 4: German Cockroach allergen Bla g 4 (protein, listed as Blattella germanica)
chain: AVLALCATDTLANEDCFRHESLVPNLDYERFRGSWIIAAGTSEALTQYKCWIDRFSYDDALVSKYTDSQGKNRTTIRGRTKFEGNKFTIDYNDKGKAFSAPYSVLATDYENYAIVEGCPAAANGHVIYVQIRFSVRRFHPKLGDKEMIQHYTLDQVNQHKKAIEEDLKHFNLKYEDLHSTCH
B4: Bla g 1: German Cockroach (Blattella germanica) allergen Bla g 1 (protein, listed as Blattella germanica)
chain: NAIEFLNNIHDLLGIPHIPVTARKHHRRGVGITGLIDDIIAILPVDDLYALFQEKLETSPEFKALYDAIRSPEFQSIVGTLEAMPEYQNLIQKLKDKGVDVDHIIELIHQIFNIVRDTRGLPEDLQDFLALIPTDQVLAIAADYLANDAEVKAAVEYLKSDEFETIVVTVDSLPEFKNFLNFLQTNGLNAIEFLNNIHDLLGIPHIPVTGRKHLRRGVGITGLIDDIIAILPVDDLYALFQEKLETSPEFKALYDAIRSPEFQSIVETLKAMPEYQSLIQKLKDKGVDVDHIIELIHQIFNIVRDTRGLPEDLQDFLALIPIDQILAIAADYLANDAEVQAAVEYLKSDEFETIVVTVDSLPEFKNFLNFLQTNGLNAIEFINNIHDLLGIPHIPATGRKHVRRGVGINGLIDDVIAILPVDELYALFQEKLESSPEFKALYDAIRSPEFQSIVQTLKAMPEYQDLIQRLKDKGVDVDHFIELIKKLFGLSH
B5: Bla g 6: German Cockroach allergen Bla g 6 (protein, listed as Blattella germanica)
chain: MADEQLQLPPEQISVLRKAFDAFDREKSGSISTNMVEEILRLMGQPFNRRTLEELIDEVDADKSGRLEFDEFVTLAAKFIIEEDSEAMEKELREAFRLYDKEGNGYIPTSCLREILRELDEQLTSDELDMMIEEIDADGSGTVDFDEFMEMMTG
B6: Bla g 7: German Cockroach allergen Bla g 7 (protein, listed as Blattella germanica)
chain: MDAIKKKMQAMKLEKDNAMDRALLCEQQARDANIRAEKAEEEARSLQKKIQQIENDLDQTMEQLMQVNAKLDEKDKALQNAESEVAALNRRIQLLEEDLERSEERLATATAKLAEASQAADESERARKILESKGLADEERMDALENQLKEARFMAEEADKKYDEVARKLAMVEADLERAEERAETGESKIVELEEELRVVGNNLKSLEVSEEKANLREEEYKQQIKTLNTRLKEAEARAEFAERSVQKLQKEVDRLEDELVHEKEKYKYICDDLDMTFTELIGN

Key:
[1] = tested on: specific IgE antibody in donor sera; assay: Serological determinations: specific IgE antibody binding by (streptavidin-)ImmunoCAP; set-up: species or system human; conditions: 34 donors
Experimental: Serological determinations: Sera were analyzed for specific IgE antibody binding to rBla g 1, rBla g 2, rBla g 4, rBla g 5 and rPer a 7 using allergen-coated streptavidin-ImmunoCAPs. Recombinant allergens were expressed in Pichia pastoris (rBla g 1, rBla g 2, rBla g 4, rPer a 7) or Escherichia coli (rBla g 5) and purified by affinity chromatography. Purified allergens were biotinylated and bound to streptavidin-coated ImmunoCAPs (Phadia US Inc., Portage, Mich.) at an optimized amount of 1 μg per ImmunoCAP. Specific IgE antibody binding to extracts from Blattella germanica (i6), Dermatophagoides pteronyssinus (d1) and D. farinae (d2), and total IgE antibody were also measured by ImmunoCAP analysis.

[2] = tested on: Bla g-specific T cells (PBMC); assay: ELISPOT assays: IL-5, IFN-γ and IL-10 production by in vitro expanded PBMC of Cockroach-allergic donors; assay type: cell-based, human; conditions: for Donors responding (%), T cell / Donors responding, T cell (number): 34 donors; for IFN-γ SFC / IL-5 SFC / Total SFC: all peptides of the protein; for Total SFC: IL-5 plus IFN-γ; for share of the response accounted for by the allergen: discussion, PBMC responses from 30 allergic donors; for Ratio IL-5/IFNγ: per protein; for % Total Response: share of total Bla g response per protein
Experimental: In vitro expansion of Bla g-specific T cells: PBMC were cultured in RPMI 1640 (V Scientific, Tarzana, Calif.) supplemented with 5% human serum (Cellgro, Herndon, Va.) at a density of 2×10^6 cells/ml in 24-well plates (BD Biosciences, San Jose, Calif.) and stimulated with 25 μg/ml German Cockroach (Blatella germanica; Bla g) extract (Greer, Lenoir, N.C.), or individual peptides. […] On day 14, cells were harvested and screened for reactivity against Bla g-specific peptide pools or individual peptides. ELISPOT assays: The production of IL-5, IFN-γ, and IL-10 was analyzed in ELISPOT assays. […] Cells were then incubated at a density of 1×10^5/well either with peptide pools or individual peptides (10 μg/ml), German Cockroach extract (25 μg/ml), PHA (10 μg/ml), or medium (containing 1% DMSO corresponding to the percentage of DMSO in the pools/peptides) as a control. […] Louis, Mo.). Spots were counted by computer-assisted image analysis (Zeiss, KS-ELISPOT reader, Munich, Germany). Each assay was performed in triplicate. The level of statistical significance was determined with a Student's t-test using the mean of triplicate values of the response against relevant pools or individual peptides versus the response against the DMSO control.

[3] = Correlation between IgE and T cell responses per donor; set-up: species or system human; conditions: for Donors with Responses to: Both: IgE and T cell
From the text: The correlation between T cell responses and IgE responses was further investigated by examining for each donor which allergens were recognized by IgE and T cell responses (Table V and Table IX).

Row | Molecule | Donors responding (%), IgE [1] | Donors responding, IgE (number) [1] | T cell response pattern (IL-5 / IFN-γ), in words [2] | Donors responding (%), T cell [2] | Donors responding, T cell (number) [2] | IFN-γ SFC [2] | IL-5 SFC [2] | Total SFC [2] | share of the response accounted for by the allergen [2] | donors with a strong Th1 bias (ratio >5-fold) ([2]; of the 11 donors responding) | donors with a strong Th2 bias ([2]; of the 11 donors responding) | donors with balanced responses ([2]; of the 11 donors responding) | Ratio IL-5/IFNγ [2] | % Total Response [2] | Donors with Responses to: IgE Only [3] | Donors with Responses to: Neither [3] | Donors with Responses to: T Cell Only [3] | Donors with Responses to: Both [3]
1 | B1 | 44% | 15 | both IL-5 and IFN-γ responses were detected | 32% | 11 | 6875 SFC | 9637 SFC | 16512 SFC | 65% | 3 | 3 | 5 | 1.40 | 67.7% | 8 | 15 | 4 | 7
2 | B2 | 24% | 8 | Little or no response; also recorded: responses were detected only for IFN-γ, and not for IL-5 | 9% | 3 | 1553 SFC | 0 SFC | 1553 SFC | – | – | – | – | <0.01 | 6.4% | 7 | 24 | 2 | 1
3 | B3 | 12% | 4 | Little or no response | 0 (0) % | 0 (0) | 0 SFC | 0 SFC | 0 SFC | – | – | – | – | – | 0.0% | 4 | 30 | 0 | 0
4 | B4 | 12% | 4 | – | 12% | 4 | 890 SFC | 1083 SFC | 1973 SFC | – | – | – | – | 1.22 | 8.1% | 3 | 27 | 3 | 1
5 | B5 | – | – | clear preponderance of IL-5 | 17% | 5 | 310 SFC | 4045 SFC | 4355 SFC | 20% | – | – | – | 13.0 | 17.9% | – | – | – | –
6 | B6 | – | – | Little or no response | – | – | 0 SFC | 0 SFC | 0 SFC | – | – | – | – | – | 0.0% | 4 | 30 | 0 | 0
